The supplement of paper PMC10724198
± gives the standard deviation of the averaged measurements.

Test system: Saccharomyces cerevisiae
Experiment: protein stability index of tFT-peptide fusion (C-terminal peptide) (PSI (0-1 scale)); higher = more stable (slower turnover)
Settings: genetic background: doa10 deletion; temperature: 30 C
Description: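 MPS profiling in S. cerevisiae of the tFT-X12 degron library: putative degron peptides plus stable controls, 12 aa, fused to the C-terminus of a sfGFP-mCherry timer. Cells are FACS-sorted into 8 mCherry/sfGFP bins and deep-sequenced. PSI runs from 0 (unstable) to 1 (stable). Backgrounds are wild type, das1Δ and doa10Δ at 30 °C, and wild type, das1Δ, cdc34-1 and cdc53-1 at 37 °C; 2-3 technical replicates each.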
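Further: PSI is a weighted mean of sequencing reads over stability bins, variants kept only with over 10 reads, mCherry proximal and sfGFP distal, peptide attached via GGGS linker.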

| Sequence | protein stability index |
| --- | --- |
| FPVSSRSFSFIP | 0.627 ± 0.02 |
| FRFYCGLVIANV | 0.359 ± 0.03 |
| FSCLCLCVATSG | 0.237 ± 0.031 |
| FSFSAFARFLVI | 0.243 ± 0.0081 |
| FSFSCFFFVLFV | 0.265 ± 0.0023 |
| FSFSFYFALASF | 0.41 ± 0.0077 |
| FTFLFPLRLLPL | 0.586 ± 0.033 |
| FVFCGVVFLFLL | 0.347 ± 0.0093 |
| FVFIFIRVFFFR | 0.171 ± 0.0012 |
| FVFLVLGPYAMF | 0.346 ± 0.013 |
| FVGVLVLCVCRC | 0.116 ± 0.025 |
| FVLFCWFFCIVW | 0.286 ± 0.032 |
| FVSFFRWLLVSI | 0.211 ± 0.017 |
| FYAAILCLLFSC | 0.22913 ± 0.00013 |
| GCDVWCLVLRMG | 0.418 ± 0.013 |
| GCFVDRVYVVVV | 0.366 ± 0.014 |
| GCLFASWPLAVC | 0.166 ± 0.008 |
| GCSVSLCCVFVV | 0.2589 ± 0.0012 |
| GCVGLSFCVWVG | 0.175 ± 0.015 |
| GDSVRVIIFCLN | 0.119 ± 0.02 |
| GEVLWAVLLVSC | 0.164 ± 0.023 |
| GFFCFLYFVVMF | 0.2127 ± 0.0014 |
| GFIRVRHLRSLC | 0.121 ± 0.019 |
| GFSFFFIFWFFF | 0.378 ± 0.034 |
| GFVCFIHLFLCF | 0.471 ± 0.045 |
| GFVVYLLLSYLF | 0.256 ± 0.0032 |

| Sequence | protein stability index |
| --- | --- |
| GGFHWCPSASRG | 0.678 ± 0.02 |
| GGGGLRVVVWLV | 0.111 ± 0.011 |
| GGRLGRAGGGGR | 0.66 ± 0.026 |
| GGVVLVVVFCCV | 0.18 ± 0.015 |
| GHFILFWVFCFM | 0.254 ± 0.0053 |
| GHSALWQVPRLM | 0.26 ± 0.013 |
| GLCGVVVGCWVR | 0.293 ± 0.011 |
| GLDLLTKFSKEC | 0.291 ± 0.027 |
| GLFFLCLLSMCF | 0.336 ± 0.014 |
| GLNKGKYIKLYT | 0.4605 ± 0.0033 |
| GLSVLLTCIHFV | 0.164 ± 0.023 |
| GNRDLVNTSVEG | 0.6331 ± 0.006 |
| GPVRSPPSPTPR | 0.674 ± 0.024 |
| GQFVISVRFLYE | 0.389 ± 0.0083 |
| GRGVRLRVRLLL | 0.185 ± 0.014 |
| GRVETIEFLFLR | 0.656 ± 0.012 |
| GRWAFFTWLRWS | 0.175 ± 0.0041 |
| GSDGVGGTVLYA | 0.638 ± 0.013 |
| GSLVLSCLMSRA | 0.431 ± 0.037 |
| GTIFLIRVLLFG | 0.171 ± 0.015 |
| GVARALFLWKAV | 0.286 ± 0.0013 |
| GVLTVVLQVGVV | 0.282 ± 0.011 |
| GVMICLDLLLSV | 0.361 ± 0.018 |
| GVVCCGFFFLVV | 0.363 ± 0.0058 |
| GWCLLRVLVLVW | 0.104 ± 0.024 |
| GYRRCCHFLFTL | 0.359 ± 0.023 |

| Sequence | protein stability index |
| --- | --- |
| HHRLRQGLRRIN | 0.251 ± 0.0034 |
| HPPPTLVPPHPR | 0.7045 ± 0.0028 |
| HRLQFKGYPICA | 0.18 ± 0.0058 |
| HRPRPLLKLLAS | 0.0522 ± 0.045 |
| HSRRRRPTPQSL | 0.662 ± 0.014 |
| HVCKLAMFQWYF | 0.2873 ± 0.0019 |
| ICIFWLITGLWL | 0.304 ± 0.014 |
| IFLCRNGAVFIC | 0.0808 ± 0.021 |
| IFRVTGFPIYIF | 0.222 ± 0.014 |
| IGFSPSFQLYSA | 0.6445 ± 0.0049 |
| IGILVTAVPVFD | 0.343 ± 0.013 |
| IIAGVWFLEILG | 0.308 ± 0.012 |
| IIGCIAICLMVN | 0.0381 ± 0.015 |
| IKCVPLVWRLTV | 0.109 ± 0.022 |
| IKIQPKKRISLI | 0.155 ± 0.0043 |
| ILAVMFEIYAIL | 0.185 ± 0.018 |
| ILCYVWLVFSGF | 0.194 ± 0.0036 |
| INHVIHAKLRFS | 0.11 ± 0.026 |
| ISSAGHNIRFLA | 0.107 ± 0.025 |
| ISTRLALCACVC | 0.1999 ± 0.00074 |
| IVRDTECGIFYR | 0.6512 ± 0.0058 |
| IVVWCGIRYSIR | 0.233 ± 0.013 |
| KKKEILVYIIQE | 0.4732 ± 0.0016 |
| KRLALVSCSICG | 0.321 ± 0.028 |
| KRRKERIKIQQI | 0.122 ± 0.0062 |
| KVGPVLLLCRRS | 0.621 ± 0.019 |
